Measurements from patent US20200283528A1 (NUMAB THERAPEUTICS, published 2020).

What was measured:
[1] = target: T1, human PDL1 expressed on cells (human, UniProt Q9NZQ7 19-290); experiment: cell-based or functional assay
[2] = target: T2, human PDL1 (recombinant, soluble) (human, UniProt Q9NZQ7 19-238); experiment: PDL1/PD-1 competition ELISA; PD-1 coated; scFv
T2 construct: also called hPDL1; hPD-L1
Procedure: (§1) ELISA plates were coated by adding 50 μl of PBS containing 4 μg/ml PD-1 overnight at 4° C. Next day, plates were washed three times in overflow mode with 450 μl wash buffer (PBS, 0.005% Tween 20) per wells and 300 μl of blocking buffer (PBS, 1% BSA, 0.2% Tween 20) were added to each well for 1 h at RT on a nutating mixer. […] ELISA pates were washed 3 times in overflow mode with 450 μl wash buffer and two times 50 μl of each dilution was added in adjacent wells of the ELISA plates in order to generate duplicates. Plates were incubated 90 minutes at RT under gentle agitation. After three washes with 450 μl of washing buffer, 50 μl of 10 ng/ml streptavidin-polyHRP40 were added to each wells of the ELISA plates. After 1 h incubation at RT, plates were washed three times with 450 μl wash buffer and developed for 5 to 10 minutes after addition of 50 μl TMB. Finally, the enzymatic reaction was stopped by addition of 50 μl of 1 M HCl and plate was read at 450 nm using 690 nm as a reference wavelength.

Fc tagged human PDL2 = target: T3, Fc tagged human PDL2 (human, UniProt Q9BQ51 20-219); experiment: SPR Biacore T200; Fc tagged human PDL2 captured; scFv as analyte
T3 construct: not shown: Fc tag
T3 sequence (looked up): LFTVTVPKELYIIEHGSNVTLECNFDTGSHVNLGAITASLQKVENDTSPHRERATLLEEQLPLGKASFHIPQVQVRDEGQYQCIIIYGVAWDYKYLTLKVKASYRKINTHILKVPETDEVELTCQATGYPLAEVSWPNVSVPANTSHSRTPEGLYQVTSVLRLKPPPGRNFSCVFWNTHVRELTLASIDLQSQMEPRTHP
Procedure: Humanized scFvs were tested for binding to PDL2 by SPR analysis on a T200 device (Biacore, GE Healthcare). In this experiment, Fc tagged human PDL2 was captured using the Human Antibody Capture kit from GE healthcare. After each analyte injection cycle the CM5 sensor chip was regenerated and new antigen was captured. The scFvs were injected as analyte at a concentration of 180 nM diluted in running buffer for 5 min and dissociation of the protein was allowed to proceed for 12 min.

[3] = target: cynomolgus PDL1, recombinant (Sino Biological) / PDL1-Fc chimeric protein (cynomolgus (Macaca fascicularis), UniProt G7PSE7 19-238); experiment: SPR Biacore T200; cynomolgus PDL1 (Sino Biological) captured; scFv as analyte
Procedure: (§2) After each analyte injection cycle, the CM5 sensor chip was regenerated and new antigen was captured. The scFvs were injected as analyte using a dose response multicycle kinetic assay with concentrations of the analyte ranging from 0.12 to 30 nM diluted in running buffer for 5 min and dissociation of the protein was allowed to proceed for 12 min. Obtained sensorgrams were fitted using the 1:1 binding model.

[4] = target: T2, human PDL1 (recombinant, soluble); experiment: PDL1/B7-1 competition ELISA; B7-1 coated; scFv
Procedure: as §1, with “μg/ml B7-1” for “μg/ml PD-1”, “of” for “of 10 ng/ml”, “streptavidin-polyHRP40 was” for “streptavidin-polyHRP40 were”, “ELISA plate.” for “ELISA plates.”

Fc tagged human PDL1 [5] = target: T4, Fc tagged human PDL1 (human, UniProt Q9NZQ7 19-238); experiment: SPR Biacore T200; Fc tagged PDL1 captured; scFv 0.12-30 nM
T4 construct: also called PDL1-Fc chimeric protein (human); not shown: Fc tag
Procedure: as §2

[6] = target: T1, human PDL1 expressed on cells; experiment: cell-based or functional assay; remark: listed apart in the source
[7] = target: T2, human PDL1 (recombinant, soluble); experiment: PDL1/PD-1 competition ELISA; PD-1 coated, biotinylated PDL1 1 ng/ml
Procedure: (§3) ELISA microplates coated overnight at 4° C. with 4 μg/ml human PD-1 were washed three times with 450 μl wash buffer per well. Plates were blocked for 1 hour at room temperature by adding 300 μl of PBS with 1% BSA and 0.2% tween (dilution buffer) to each well. […] The mixtures were pre-incubated for 1 hour at room temperature under gentle agitation on a rotating mixer (21 rpm) and added to the microplates after 3 wash cycles with 450 μl wash buffer per well. Plates were incubated for 1.5 hours at room temperature under gentle agitation, then 10 ng/ml streptavidin-polyHRP40 was added to each microplate well after three washes with 450 μl of wash buffer per well. After 1 h incubation at RT, plates were washed three times with 450 μl wash buffer and TMB substrate solution was added. The enzymatic reaction was stopped after 6 minutes by addition of 1 M HCl and absorbance was measured at 450 nm using 690 nm as a reference wavelength. For calculation of IC₅₀ values, a four-parameter logistic (4PL) curve fit was performed in Graph Pad Prism using reference subtracted values.

Fc tagged human PDL1 [8] = target: T4, Fc tagged human PDL1; experiment: SPR Biacore T200; PDL1-Fc captured
Procedure: (§4) An antibody specific for the Fc region of human IgGs was immobilized on a sensor chip (CM5 sensor chip, GE Healthcare) by amine-coupling. […] After each injection cycle, surfaces were regenerated with one injection of a 3 M MgCl₂ solution. The apparent dissociation (kd) and association (kₐ) rate constants and the apparent dissociation equilibrium constant (KD) were calculated using one-to-one Langmuir binding model.

Fc tagged human PDL1 [9] = target: T4, Fc tagged human PDL1; experiment: SPR Biacore T200; PDL1-Fc captured; molecule 0.12-90 nM
Procedure: as §4

[10] = target: T2, human PDL1 (recombinant, soluble); experiment: PDL1/B7-1 competition ELISA; B7-1 coated, biotinylated PDL1 40 ng/ml
Procedure: as §3, with “B7-1” for “PD-1”

[11] = target: T1, human PDL1 expressed on cells; experiment: cell-based or functional assay; remark: listed apart in the source
[12] = target: T1, human PDL1 expressed on cells; experiment: cell-based or functional assay; remark: listed apart in the source

Sequence of cynomolgus PDL1, recombinant (Sino Biological) / PDL1-Fc chimeric protein (G7PSE7 entry or part of it mutant limits assumed): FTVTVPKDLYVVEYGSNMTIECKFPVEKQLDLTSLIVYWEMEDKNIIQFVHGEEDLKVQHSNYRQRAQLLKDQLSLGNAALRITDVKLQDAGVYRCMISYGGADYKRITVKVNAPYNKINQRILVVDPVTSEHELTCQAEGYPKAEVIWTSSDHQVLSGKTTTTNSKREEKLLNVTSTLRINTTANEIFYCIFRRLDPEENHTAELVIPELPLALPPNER

B1: PRO1392 (33-03-G02-sc18 scFv) (scFv)
scFv: DIQMTQSPSSLSASVGDRVTITCQASQSINDYLAWYQQKPGKAPKLLIYKASTLASGVPSRFSGSGSGTDFTLTISSLQPEDFATYYCQQGYIITDIDNVFGTGTKVTVLGGGGGSGGGGSGGGGSGGGGSQVQLQESGPGLVKPSETLSLTCKASGFSFSSGYDMCWVRQPPGKGLEWIACVVAGSVDITYYASWAKGRVTISKDSSKNQVSLKLSSVTAADTAVYYCARKDAYSDAFNLWGQGTLVTVSS
reporter gene assay IC50 [1]: 12 ng/mL
reporter gene assay Maximum Inhibition (%) [1]: 96.7%
IC50 [2]: 0.47 ng/mL
Maximum Inhibition (%) [2]: 99.9%
binding result (Fc tagged human PDL2): no binding (tested: 180 nM)
KD, cyno/KD, human [3]: 2
Kd [3]: 19.9 pM
koff [3]: 8.87e-05 s⁻¹
kon [3]: 4.45e+06 M⁻¹ s⁻¹
IC50 [4]: 1.19 ng/mL
Maximum Inhibition (%) [4]: 93.2%
Kd (Fc tagged human PDL1 [5]): 9.94 pM
koff (Fc tagged human PDL1 [5]): 6.16e-05 s⁻¹
kon (Fc tagged human PDL1 [5]): 6.19e+06 M⁻¹ s⁻¹

B2: PRO1183 (33-03-G02-sc03 scFv) (scFv)
scFv: DFQLTQSPSSLSASVGDRVTITCQASQSINDYLAWYQQKPGKSPKLLIYKASTLASGVPSRFSGSGSGTDFTLTISSLQPEDFATYYCQQGYIITDIDNVFGTGTKVTVLGGGGGSGGGGSGGGGSGGGGSQSQLQESGPGLVKPSETLSLTCKASGFSFSSGYDMCWVRQPPGKGLEWIACVVAGSVDITYYASWAKGRVTISKDSSKNQVSLKLSSVTAADTAVYFCARKDAYSDAFNLWGQGTLVTVSS
notes: also called 33_03_G02 sc03 Full
reporter gene assay IC50 [1]: 9.98 ng/mL
reporter gene assay Maximum Inhibition (%) [1]: 102%
IC50 [2]: 0.36 ng/mL
Maximum Inhibition (%) [2]: 99.8%
binding result (Fc tagged human PDL2): no binding (tested: 180 nM)
KD, cyno/KD, human [3]: < 5.58
Kd [3]: 11.7 pM
koff [3]: 1.82e-05 s⁻¹
kon [3]: 1.55e+06 M⁻¹ s⁻¹
IC50 [4]: 0.977 ng/mL
Maximum Inhibition (%) [4]: 95.4%
Kd (Fc tagged human PDL1 [5]): < 2.1 pM
koff (Fc tagged human PDL1 [5]): < 1e-05 s⁻¹
kon (Fc tagged human PDL1 [5]): 4.77e+06 M⁻¹ s⁻¹

B3: PRO997/PRO908 (37-20-B03-sc01 scFv) (scFv)
scFv: DIQMTQSPSSLSASVGDRVTITCQASQSIGTYLAWYQQKPGKAPKLLIYRAFILASGVPSRFSGSGSGTDFTLTISSLQPEDFATYYCQSNFYSDSTTIGPNAFGTGTKVTVLGGGGGSGGGGSGGGGSGGGGSQVQLQESGPGLVKPSETLSLTCKVSGFSFNSDYWIYWIRQPPGKGLEWIGSIYGGSSGNTQYASWAQGRVTISVDSSKNQFSLKLSSVTAADTAVYYCARGYVDYGGATDLWGQGTLVTVSS
notes: VL-linker-VH, VH4 CDR graft; PRO997 was made in CHO-S cells, PRO908 in bacteria; also called 37-20-B03 CDR
NFAT reporter gene assay, fold potency of VH4 graft (PRO997) against VH1 graft (PRO1013) [6]: ~2 fold
reporter gene assay IC50 [1]: 8.02 ng/mL
reporter gene assay Maximum Inhibition (%) [1]: 95.3%
IC50 [7]: 0.5 ng/mL
IC50 [2]: 0.33 ng/mL
Maximum Inhibition (%) [2]: 100%
fold higher affinity against the STR graft of clone 33-03-G02 (Fc tagged human PDL1 [8]): ~2 fold
KD, cyno/KD, human [3]: < 0.28
Kd [3]: < 1.68 pM
kon [3]: 5.96e+06 M⁻¹ s⁻¹
Kd (Fc tagged human PDL1 [9]): 1.7 pM
IC50 [10]: 6.36 ng/mL
IC50 [4]: 1.21 ng/mL
Maximum Inhibition (%) [4]: 93.1%
IL-2 secretion of SEA stimulated PBMC, EC50 in ng/ml [11]: 40.9 ng/mL
Kd (Fc tagged human PDL1 [5]): 5.94 pM
koff (Fc tagged human PDL1 [5]): 4.02e-05 s⁻¹
kon (Fc tagged human PDL1 [5]): 6.76e+06 M⁻¹ s⁻¹
NF-AT potency assay IC50 [12]: 11.1 ng/mL

B4: PRO1126 (38-02-A04 sc01 scDb-i/33_03_G02 sc03 Full scDb-o) (bispecific antibody)
chain: DFQLTQSPSSLSASVGDRVTITCQASQSINDYLAWYQQKPGKSPKLLIYKASTLASGVPSRFSGSGSGTDFTLTISSLQPEDFATYYCQQGYIITDIDNVFGTGTKVTVLGGGGGSQVQLQESGPGLVKPSETLSLTCKVSGFSFSNSYWICWIRQPPGKGLEWIGCTFVGSSDSTYYANWAKGRVTISVDSSKNQFSLKLSSVTAADTAVYYCARHPSDAVYGYANNLWGQGTLVTVSSGGGGSGGGGSGGGGSGGGGSIQMTQSPSSLSASVGDRVTITCQASQSINNVLAWYQQKPGKAPKLLIYRASTLASGVPSRFSGSGSGTDFTLTISSLQPEDFATYYCQSSYGNYGDFGTGTKVTVLGGGGGSQSQLQESGPGLVKPSETLSLTCKASGFSFSSGYDMCWVRQPPGKGLEWIACVVAGSVDITYYASWAKGRVTISKDSSKNQVSLKLSSVTAADTAVYFCARKDAYSDAFNLWGQGTLVTVSS
NFAT reporter gene assay IC50 [6]: 48.1 ng/mL
NFAT reporter gene assay, improvement of neutralization potency against PRO885 [6]: 3 fold
IC50 [7]: 1.28 ng/mL
fold improvement in affinity against the CDR graft (PRO885) (Fc tagged human PDL1 [8]): 20 fold
Kd (Fc tagged human PDL1 [9]): 3.5 pM
